Source: the RNAGym collection of RNA variant scans (doi:10.7554/elife.90254)

B1: OR4K15 (parent)
chain: GUUAACGGUCAUAGGCCAUGGAAACUAGGAGCACCAUUUCGCUGCCAGUGAAGAAAUGAACAAAGAAAAUCUGGGCCAGGCAGGCAUCAAAAGAAAUAGUCUUGCGCUCAACCAGAAAGUCUGUAAUCAUUUUAAGGGUA

Variants of: B1
Experiment: self-cleavage, relative activity (ratio to wild type); higher = more cleavage; in vitro, sequencing; the parent is a self-cleaving ribozyme
U3A G74A showed a self-cleavage of 0.39.
With A5G U132A the self-cleavage was 0.6.
In the case of A5G U132C, the self-cleavage is reported as 0.89.
U3C U130A showed a self-cleavage of 1.27.
With U3C A30G the self-cleavage was 0.92.
Variant A5G A78U has a self-cleavage of 0.46.
In the case of A5G A78G, the self-cleavage is reported as 0.43.
Work on A4G A95G yielded a self-cleavage of 1.4.
Work on A4G A95C yielded a self-cleavage of 1.49.
In the case of A4G G14A, the self-cleavage is reported as 1.05.
In the case of A5G A90C, the self-cleavage is reported as 1.08.
Variant A5G A90G has a self-cleavage of 1.11.
Variant A5G G119U has a self-cleavage of 1.44.
For A5U A30U, the self-cleavage was 1.11.
A4G U87C showed a self-cleavage of 1.14.
Variant A4G A33U has a self-cleavage of 0.59.
A5C A36U gave a self-cleavage of 1.59.
A5G U70C gave a self-cleavage of 0.82.
A5G U72A showed a self-cleavage of 0.43.
A5G U72C gave a self-cleavage of 0.41.
U3A U70C showed a self-cleavage of 1.14.
In the case of A5U A52G, the self-cleavage is reported as 1.18.
In the case of A5C A117U, the self-cleavage is reported as 0.56.
A4U G106A gave a self-cleavage of 0.14.
In the case of U3A A47C, the self-cleavage is reported as 1.17.
U3C U19C gave a self-cleavage of 1.88.
With U3A U38C the self-cleavage was 1.
A4G A64G showed a self-cleavage of 1.21.
For A4G U122A, the self-cleavage was 1.37.
A4U U72A gave a self-cleavage of 0.28.
For A5C A52G, the self-cleavage was 0.46.
U3C U38C showed a self-cleavage of 0.98.
A4C U100C showed a self-cleavage of 1.19.
A5U gave a self-cleavage of 1.1.
Variant A5G has a self-cleavage of 0.92.
Variant A5C has a self-cleavage of 1.21.
Work on A4G U100C yielded a self-cleavage of 1.42.
With A5G G21A the self-cleavage was 1.23.
Work on U3C A68C yielded a self-cleavage of 1.6.
Work on U3C A68G yielded a self-cleavage of 0.86.
U2G A69U showed a self-cleavage of 0.94.
In the case of U3G A51G, the self-cleavage is reported as 1.72.
For U3C A98U, the self-cleavage was 2.88.
U3C U49C gave a self-cleavage of 0.5.
U2C U132A showed a self-cleavage of 1.23.
U3A U37C showed a self-cleavage of 0.99.
For A5C U108A, the self-cleavage was 0.07.
With A4G A78U the self-cleavage was 0.63.
Work on A5G U19C yielded a self-cleavage of 0.96.
For A5G U19A, the self-cleavage was 0.53.
For U3C G119U, the self-cleavage was 0.99.
In the case of U3C G119A, the self-cleavage is reported as 1.44.
Variant A5G U139A has a self-cleavage of 1.6.
Variant A5G U139C has a self-cleavage of 1.1.
In the case of U3A A30G, the self-cleavage is reported as 0.63.
A4G U124A gave a self-cleavage of 0.48.
In the case of A4G U124C, the self-cleavage is reported as 0.5.
A5C A66G showed a self-cleavage of 2.49.
For A5C U102A, the self-cleavage was 1.35.
For A5G A36U, the self-cleavage was 1.13.
For A5G A27U, the self-cleavage was 0.96.
U2G A135U showed a self-cleavage of 1.03.
In the case of A5G U43A, the self-cleavage is reported as 1.49.
For A5G U43C, the self-cleavage was 0.59.
U3C A55G showed a self-cleavage of 1.1.
Work on A5G G80A yielded a self-cleavage of 0.43.
Work on A4G A69C yielded a self-cleavage of 0.53.
With A4G A69G the self-cleavage was 1.31.
Variant A4G A69U has a self-cleavage of 1.14.
U3A A118G gave a self-cleavage of 0.9.
Work on A5G C88U yielded a self-cleavage of 1.02.
With A4G A18U the self-cleavage was 1.25.
With U3C A78U the self-cleavage was 0.51.
Variant U3A A4G has a self-cleavage of 1.4.
Work on A4G U39G yielded a self-cleavage of 1.88.
With A4G U39C the self-cleavage was 1.46.
For A5G U124A, the self-cleavage was 0.54.
With A5G U124C the self-cleavage was 0.58.
For A5G U9C, the self-cleavage was 0.82.
In the case of U3C A52G, the self-cleavage is reported as 1.1.
Variant A5C A111G has a self-cleavage of 0.16.
Work on U3G A59G yielded a self-cleavage of 0.68.
For A4G A56G, the self-cleavage was 1.02.
A5G A52C showed a self-cleavage of 1.39.
For A5G A52G, the self-cleavage was 1.07.
Work on A5U A47C yielded a self-cleavage of 1.29.
With A4G A24C the self-cleavage was 1.03.
Work on A5G G104A yielded a self-cleavage of 0.03.
In the case of A5C A134U, the self-cleavage is reported as 2.1.
For A5G A56G, the self-cleavage was 0.66.
With A5G A47G the self-cleavage was 1.37.
A5G A47C showed a self-cleavage of 1.22.
Variant A5G G73A has a self-cleavage of 0.21.
For A5C A68G, the self-cleavage was 1.63.
U2C U19C gave a self-cleavage of 0.96.
U2C U19A gave a self-cleavage of 1.16.
U3C A69G showed a self-cleavage of 1.6.
For A4G G106A, the self-cleavage was 0.02.
In the case of U3C A23G, the self-cleavage is reported as 1.22.
Variant A4U A63G has a self-cleavage of 0.87.
In the case of U2C U72C, the self-cleavage is reported as 0.15.
Variant U2C U72A has a self-cleavage of 0.1.
With A5G G7U the self-cleavage was 1.05.
Work on A5G G7A yielded a self-cleavage of 0.91.
In the case of A5U A24G, the self-cleavage is reported as 1.12.
For A5G A13G, the self-cleavage was 0.89.
A5G A13U gave a self-cleavage of 0.95.
For A4G A96C, the self-cleavage was 0.67.
With A4G A96G the self-cleavage was 1.4.
U3C A135G gave a self-cleavage of 0.99.
A4U A140G gave a self-cleavage of 1.16.
For U2C U70C, the self-cleavage was 0.46.
U2C U70A gave a self-cleavage of 0.71.
A5G A89G showed a self-cleavage of 1.23.
U3C U100C showed a self-cleavage of 1.71.
U3C showed a self-cleavage of 1.1.
U3A gave a self-cleavage of 1.
U3G gave a self-cleavage of 1.07.
U2C U122G gave a self-cleavage of 1.35.
For U2C U122C, the self-cleavage was 0.25.
Variant A4G A52U has a self-cleavage of 0.92.
Work on A5G U49C yielded a self-cleavage of 0.97.
A5G G137A gave a self-cleavage of 0.6.
In the case of A4G G138A, the self-cleavage is reported as 0.99.
In the case of U3A A60U, the self-cleavage is reported as 1.71.
A4G U43A gave a self-cleavage of 1.26.
A4G U43G gave a self-cleavage of 0.55.
For U3G A24G, the self-cleavage was 0.8.
Variant A5G U26C has a self-cleavage of 0.6.
A5C U132C gave a self-cleavage of 1.97.
Variant A5G A111G has a self-cleavage of 0.08.
In the case of A4C A111G, the self-cleavage is reported as 0.04.
In the case of A4G U19C, the self-cleavage is reported as 1.78.
Work on A4G U19A yielded a self-cleavage of 0.78.
In the case of A5U A66G, the self-cleavage is reported as 1.27.
U3C A51G gave a self-cleavage of 1.12.
Work on U2C U108C yielded a self-cleavage of 0.03.
A4U U57A gave a self-cleavage of 1.53.
Variant A4U U57C has a self-cleavage of 0.65.
Variant A5G C121U has a self-cleavage of 1.14.
For A5G C121A, the self-cleavage was 1.89.
U2G A62G gave a self-cleavage of 0.65.
A5G C128G gave a self-cleavage of 0.8.
With U2C U97C the self-cleavage was 0.55.
A4G U103C gave a self-cleavage of 1.19.
A4G U103A gave a self-cleavage of 1.27.
For A5G U103C, the self-cleavage was 0.27.
U2C U87C gave a self-cleavage of 0.43.
Work on A5G A116U yielded a self-cleavage of 0.25.
Variant U3A A27G has a self-cleavage of 1.25.
U3C A94G showed a self-cleavage of 2.02.
U3C A110G gave a self-cleavage of 0.19.
U3C A110U gave a self-cleavage of 1.16.
With A5G A110G the self-cleavage was 0.15.
With A5G A125G the self-cleavage was 0.42.
In the case of A4G A134G, the self-cleavage is reported as 0.91.
For U3G A66G, the self-cleavage was 1.01.
In the case of U3C C71U, the self-cleavage is reported as 0.12.
For U3C C71A, the self-cleavage was 0.16.
U2G A56G gave a self-cleavage of 1.23.
U3C C25U showed a self-cleavage of 1.05.
Work on U3G A5C yielded a self-cleavage of 1.53.
For U3C A22U, the self-cleavage was 1.12.
In the case of U3C U127C, the self-cleavage is reported as 1.79.
A5G A54G gave a self-cleavage of 1.04.
With A5G A54U the self-cleavage was 0.83.
With A5C A23G the self-cleavage was 1.28.
